Article doi:10.1101/2023.08.25.554718, “Structural mechanism of synergistic targeting of the CX3CR1 nucleosome by PU.1 and C/EBPα”

Key:
PU.1 ETS Q218H = PU.1 ETS Q218H (mouse, UniProt P17433 165-272, Q218H); test: EMSA; little effect of Q218H; EMSA: 20 mM HEPES pH 7.3, 150 mM NaCl, 0.5 mM TCEP, 30 min room temperature, 0.5 uM nucleosome or DNA; FRET: 20 mM HEPES pH 7.1, 100 mM NaCl, 0.5 mM TCEP, 200 n
PU.1 ETS (ETSPU.1) = PU.1 ETS (ETSPU.1) (mouse, UniProt P17433 165-272); test: EMSA; EMSA: 20 mM HEPES pH 7.3, 150 mM NaCl, 0.5 mM TCEP, 30 min room temperature, 0.5 uM nucleosome or DNA; FRET: 20 mM HEPES pH 7.1, 100 mM NaCl, 0.5 mM TCEP, 200 n
PU.1 full-length = PU.1 full-length (mouse, UniProt P17433 1-272); test: EMSA; EMSA: 20 mM HEPES pH 7.3, 150 mM NaCl, 0.5 mM TCEP, 30 min room temperature, 0.5 uM nucleosome or DNA; FRET: 20 mM HEPES pH 7.1, 100 mM NaCl, 0.5 mM TCEP, 200 nM nucleosome; settings: protein: recombinant; tags: N-terminal His
MBP-DBD C/EBPalpha = MBP-DBD C/EBPalpha (UniProt P53566 214-359); test: EMSA; 5 uM DNA; MBP fusion assumed; EMSA: 20 mM HEPES pH 7.3, 150 mM NaCl, 0.5 mM TCEP, 30 min room temperature, 0.5 uM nucleosome or DNA; FRET: 20 mM HEPES pH 7.1, 100 mM NaCl, 0.5 mM TCEP, 200 nM nucleosome; settings: protein: recombinant; tags: N-terminal MBP; chain copies: 2; blunt
Sequence of MBP-DBD C/EBPalpha (P53566 214-359): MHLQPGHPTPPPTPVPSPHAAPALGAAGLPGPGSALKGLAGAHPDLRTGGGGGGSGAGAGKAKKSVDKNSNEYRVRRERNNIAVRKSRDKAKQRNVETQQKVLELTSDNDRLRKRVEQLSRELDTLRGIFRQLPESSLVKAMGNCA

B1: 162 bp CX3CR1 DNA (dsDNA)
DNA 1: TAGGTGCAGGGCCTCTCGGCTGCTGATCTTCAGCTGGTTGCTGAGAGTTGCAGCATTGCTGAGTCTTAGCAATGGATACTTCCCGATTCCCCTCACAAAAATAGGTCAGTCTGTCTGGCTAGTTCTGTACTTGCAGACACAGGGCATGTGGGGTTCCTATTT
DNA 2: AAATAGGAACCCCACATGCCCTGTGTCTGCAAGTACAGAACTAGCCAGACAGACTGACCTATTTTTGTGAGGGGAATCGGGAAGTATCCATTGCTAAGACTCAGCAATGCTGCAACTCTCAGCAACCAGCTGAAGATCAGCAGCCGAGAGGCCCTGCACCTA
- binding result (PU.1 ETS Q218H): binds
- binding result (PU.1 ETS (ETSPU.1)): binds
- binding result (PU.1 full-length): binds

B2: 20 bp C/EBPalpha site DNA (dsDNA)
DNA 1: ATCTTCAGCTGGTTGCTGAG
DNA 2: CTCAGCAACCAGCTGAAGAT
- binding result (MBP-DBD C/EBPalpha): binds
